Results reported in PMC12241602.

Key:
[1] = molecular target: His6-MadB (class I lantibiotic dehydratase MadB) (Clostridium sp. Maddingley); test: cryo-EM structure; single particle cryo-EM of purified apo MadB and of MadB with MadL3, C2 symmetry imposed
[2] = molecular target: His6-MadB (class I lantibiotic dehydratase MadB) (Clostridium sp. Maddingley); test: SEC-MALS; 100 uL of 20 uM MadB on Superdex 200 10/300 Increase, 50 mM HEPES pH 8.0, 200 mM NaCl, 0.5 mL/min
[3] = molecular target: His6-MadB (class I lantibiotic dehydratase MadB) (Clostridium sp. Maddingley); test: nanoDSF; 2 uM His6-MadB with or without 10 uM ligand peptide, 10 min at room temperature, 50 mM HEPES, 500 mM NaCl, pH 7.5, ramp 1 °C/min from 25 to 95 °C, intrinsic fluorescence 330/350 nm

Substance	stoichiometry N [1]	stoichiometry N [2]	Tm shift [3] [°C]
His6-MadB (class I lantibiotic dehydratase MadB) (enzyme)	2	2	–
MadL1 (isolated leader peptide of maddinglicin A)	–	–	1.8
